In publication PMC9352680, “A comprehensive thermodynamic model for RNA binding by the Saccharomyces cerevisiae Pumilio protein PUF4”:
Where a chain is given by its changes, count along the chain named. Names may count otherwise.

T1: PUF4 RNA-binding domain (Saccharomyces cerevisiae, UniProt P25339 537-888)
T1 sequence: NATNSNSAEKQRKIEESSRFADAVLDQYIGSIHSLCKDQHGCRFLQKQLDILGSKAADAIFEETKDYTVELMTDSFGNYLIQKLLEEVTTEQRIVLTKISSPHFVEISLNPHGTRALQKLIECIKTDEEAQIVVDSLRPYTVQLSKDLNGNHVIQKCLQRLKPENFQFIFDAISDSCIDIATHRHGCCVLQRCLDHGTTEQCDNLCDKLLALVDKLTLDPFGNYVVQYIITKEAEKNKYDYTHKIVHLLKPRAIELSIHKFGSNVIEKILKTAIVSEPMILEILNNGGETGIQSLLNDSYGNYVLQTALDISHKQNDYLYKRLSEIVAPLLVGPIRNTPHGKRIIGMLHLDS

B1: Id_ii_S2_P3E.3_K3.2_C3.2_[C-2T]_[T-1C]_H3.2_A3.1_F3.1_T3.2_[T9G]_[A10T] (ssRNA)
RNA: UUUGAUUAAUAUGAUAUCGUUCUUUCUUCUAUAUAUAGUUUCUUUCUCGAUAUCAUAUUAAUCUUU
B2: Id_ii_S2_P3E.3_K3.2_C3.2_[C-2T]_[T-1A]_H3.2_A3.1_F3.1_T3.2_[T9C]_[A10T] (ssRNA)
RNA: B1 RNA with C29A, G38C
B3: Id_ii_S2_P3E.3_K3.2_C3.2_[C-2T]_[T-1A]_H3.2_A3.1_F3.1_T3.2_[T9C]_[A10C] (ssRNA)
RNA: B1 RNA with C29A, G38C, U39C
B4: Id_ii_S2_P3E.3_K3.2_C3.2_[C-2T]_[T-1G]_H3.2_A3.1_F3.1_T3.2_[T9A]_[A10T] (ssRNA)
RNA: B1 RNA with C29G, G38A
B5: Id_ii_S2_P3E.3_K3.2_C3.2_[C-2G]_H3.2_A3.1_F3.1_T3.2_[A10G] (ssRNA)
RNA: B1 RNA with U28G, C29U, G38U, U39G
B6: Id_ii_S2_P3E.3_K3.2_C3.2_[C-2G]_[T-1C]_H3.2_A3.1_F3.1_T3.2_[T9C]_[A10C] (ssRNA)
RNA: B1 RNA with U28G, G38C, U39C
B7: Id_ii_S2_P3E.2_K3.1_C3.2_[T-1A]_H3.1_A3.1_F3.1_T3.2_[T9G]_[A10T] (ssRNA)
RNA: B1 RNA with U28C, C29A, A31G
B8: Id_ii_S2_P3E.2_K3.1_C3.2_[T-1A]_H3.1_A3.1_F3.1_T3.2_[A10C] (ssRNA)
RNA: B1 RNA with U28C, C29A, A31G, G38U, U39C
B9: Id_ii_S2_P3E.3_K3.2_C3.2_[C-2T]_[T-1G]_H3.2_A3.1_F3.1_T3.2_[T9G]_[A10T] (ssRNA)
RNA: B1 RNA with C29G
B10: Id_ii_S2_P3E.2_K3.1_C3.2_H3.1_A3.1_F3.1_T3.2_[T9A]_[A10T] (ssRNA)
RNA: B1 RNA with U28C, C29U, A31G, G38A
B11: Id_ii_S2_P3E.3_K3.2_C3.2_[C-2G]_H3.2_A3.1_F3.1_T3.2_[A10T] (ssRNA)
RNA: B1 RNA with U28G, C29U, G38U
B12: Id_ii_S2_P3E.3_K3.2_C3.2_[C-2T]_[T-1C]_H3.2_A3.1_F3.1_T3.2_[T9C] (ssRNA)
RNA: B1 RNA with G38C, U39A
B13: Id_ii_S2_P3E.2_K3.1_C3.2_H3.1_A3.1_F3.1_T3.2_[A10C] (ssRNA)
RNA: B1 RNA with U28C, C29U, A31G, G38U, U39C
B14: Id_ii_S2_P3E.3_K3.2_C3.2_[C-2T]_[T-1C]_H3.2_A3.1_F3.1_T3.2_[T9C]_[A10T] (ssRNA)
RNA: B1 RNA with G38C
B15: Id_ii_S2_P3E.2_K3.1_C3.2_[T-1C]_H3.1_A3.1_F3.1_T3.2_[A10T] (ssRNA)
RNA: B1 RNA with U28C, A31G, G38U
B16: Id_ii_S2_P3E.2_K3.1_C3.2_H3.1_A3.1_F3.1_T3.2_[A10G] (ssRNA)
RNA: B1 RNA with U28C, C29U, A31G, G38U, U39G
B17: Id_ii_S2_P3E.3_K3.2_C3.2_[C-2G]_[T-1C]_H3.2_A3.1_F3.1_T3.2_[A10T] (ssRNA)
RNA: B1 RNA with U28G, G38U
B18: Id_ii_S2_P3E.3_K3.2_C3.2_[C-2G]_H3.2_A3.1_F3.1_T3.2_[T9C]_[A10G] (ssRNA)
RNA: B1 RNA with U28G, C29U, G38C, U39G
B19: Id_ii_S2_P3E.3_K3.2_C3.2_[C-2G]_H3.2_A3.1_F3.1_T3.2_[T9A]_[A10T] (ssRNA)
RNA: B1 RNA with U28G, C29U, G38A
B20: Id_ii_S2_P3E.3_K3.2_C3.2_[C-2G]_H3.2_A3.1_F3.1_T3.2_[A10C] (ssRNA)
RNA: B1 RNA with U28G, C29U, G38U, U39C
B21: Id_ii_S2_P3E.2_K3.1_C3.2_[T-1C]_H3.1_A3.1_F3.1_T3.2_[T9A]_[A10G] (ssRNA)
RNA: B1 RNA with U28C, A31G, G38A, U39G
B22: Id_ii_S2_P3E.3_K3.2_C3.2_[C-2T]_[T-1G]_H3.2_A3.1_F3.1_T3.2_[T9A] (ssRNA)
RNA: B1 RNA with C29G, G38A, U39A
B23: Id_ii_S2_P3E.3_K3.2_C3.2_[C-2G]_[T-1G]_H3.2_A3.1_F3.1_T3.2_[T9A]_[A10C] (ssRNA)
RNA: B1 RNA with U28G, C29G, G38A, U39C
B24: Id_ii_S2_P3E.3_K3.2_C3.2_[C-2T]_[T-1C]_H3.2_A3.1_F3.1_T3.2_[T9C]_[A10G] (ssRNA)
RNA: B1 RNA with G38C, U39G

Molecular target: T1, PUF4 RNA-binding domain
Assay: Mg; RNA-MaP; 20 mM Na-HEPES pH 7.4, 30 mM KOAc, 0.75 mM MgCl2, 0.1% Tween-20, 5% glycerol, 0.1 mg/mL BSA, 2 mM DTT; 25 C; 0.0125-409.6 nM protein
Details: tags: N-His6-TEV cleaved; C-SNAP kept, Cy3B-labelled; label: tethered on chip by stalled RNA polymerase

Binder | Kd
B1 | 1030 nM
B2 | 45.6 nM
B3 | 63.8 nM
B4 | 1.67 nM
B5 | 22.9 nM
B6 | 329 nM
B7 | 3.93 nM
B8 | 2.36 nM
B9 | 3.83 nM
B10 | 1.9 nM
B11 | 9.18 nM
B12 | 175 nM
B13 | 1.61 nM
B14 | 88 nM
B15 | 1.22 nM
B16 | 2.02 nM
B17 | 86.4 nM
B18 | 291 nM
B19 | 36.2 nM
B20 | 15.1 nM
B21 | 4.04 nM
B22 | 2.25 nM
B23 | 1450 nM
B24 | 536 nM
UCUCUUUGUGUUACUAUCUCUU (ssRNA) [Ib_S1_P5E.1_K5.1_C5.1_H5.1_[A4G]_A5.1_F5.1_[T8C]_T5.1] | 51.5 nM
UCUCUUUGCAUUACUAUCUCUU (ssRNA) [Ib_S1_P5E.1_K5.1_C5.1_H5.1_[T3C]_A5.1_F5.1_[T8C]_T5.1] | 1370 nM
UCUCUUUGUCUUACUAUCUCUU (ssRNA) [Ib_S1_P5E.1_K5.1_C5.1_H5.1_[A4C]_A5.1_F5.1_[T8C]_T5.1] | 86.7 nM
UCUCUUUGUUUUAGUAUCUCUU (ssRNA) [Ib_S1_P5E.1_K5.1_C5.1_H5.1_[A4T]_A5.1_F5.1_[T8G]_T5.1] | 70.8 nM
UCUCUUUGUUUUACUAUCUCUU (ssRNA) [Ib_S1_P5E.1_K5.1_C5.1_H5.1_[A4T]_A5.1_F5.1_[T8C]_T5.1] | 59.6 nM
